Test results taken from the supplement of paper PMC9170038.

Test system: MS2 coat protein
Assay: apparent KD of MS2 coat protein; higher = weaker reporter binding
Conditions: Eterna round: R107
Method in brief: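 Designed RNA switches were transcribed on-chip from Illumina sequencing clusters. SNAP-549-labelled MS2 coat protein was titrated onto them in twofold steps from 0.7 or 1.5 nM to 3 µM in 100 mM Tris-HCl pH 7.5, 80 mM KCl, 4 mM MgCl2, either without or with constant ligand. Apparent KD reflects the per-design median of normalised cluster binding-curve fits.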

[1] = input ligand: theophylline 20 uM
[2] = input ligand: theophylline 2 mM
[3] = input ligand: tryptophan 2.4 mM

Sequence: AGCCCGUGAGCGGCCGCCACUGGAGGCUUUGCGCGACAUGAGGAUCACCCAUGUGUGCCCGGCGUUAGGACCGGGUUCACGUGGU [#1 Same State - Tryptophan B Attempt #19 (HarryS)]
- apparent KD of MS2 coat protein (input ligand: arginine 13.2 mM): 59.4 nM
- apparent KD of MS2 coat protein (input ligand: none): 304 nM
- apparent KD of MS2 coat protein [1]: 226 nM
- apparent KD of MS2 coat protein [2]: 838 nM
- apparent KD of MS2 coat protein [3]: 124 nM

Sequence: AGCCCGUGAGCGGCCGCCACUGGAGGCUUUGCGCGACAUGAGGAUCACCCAUGUGUGCCCGGCGUUAGGACCGGGUUCGCGUGGU [#1 Same State - Tryptophan B Attempt #18 (HarryS)]
- apparent KD of MS2 coat protein (input ligand: arginine 13.2 mM): 30 nM
- apparent KD of MS2 coat protein (input ligand: none): 38.5 nM
- apparent KD of MS2 coat protein [1]: 48.7 nM
- apparent KD of MS2 coat protein [2]: 45.4 nM
- apparent KD of MS2 coat protein [3]: 32.4 nM

Sequence: AGCCCUGUGCUAGAUACCAGCUACAUGAGGAUCACCCAUGUGCGUCAGAAAUGACUGUGUAGCCCUUGGCAGCUAAAUGCAUGUA [Exclusion - Theophylline B (Freestyle 7)]
- apparent KD of MS2 coat protein (input ligand: arginine 13.2 mM): 13.8 nM
- apparent KD of MS2 coat protein [1]: 16.5 nM
- apparent KD of MS2 coat protein [3]: 11 nM

Sequence: AGCCGCGUUCUUUCUUUCUUUCUAGCGGCACGAGGACCGGUACGGCCGCCACUCGCCCACAUGAGGAUCACCCAUGUAGUGGGUG [The One Ring #2]
- apparent KD of MS2 coat protein (input ligand: arginine 13.2 mM): 18.5 nM
- apparent KD of MS2 coat protein [1]: 27.7 nM
- apparent KD of MS2 coat protein [2]: 23.9 nM

Sequence: AGCCGGAUUACGGCCGCCACUGUAGACGUGACGAAAGUCGCGUCAACAUGAGGAUCACCCAUGUACAGGACCGGGUGGUCCGGCG [Omei Trp B SS A v1]
- apparent KD of MS2 coat protein (input ligand: arginine 13.2 mM): 15 nM
- apparent KD of MS2 coat protein (input ligand: none): 13.7 nM
- apparent KD of MS2 coat protein [1]: 22.2 nM
- apparent KD of MS2 coat protein [2]: 17.8 nM
- apparent KD of MS2 coat protein [3]: 6.02 nM

Sequence: AGCCGGAUUACGGCCGCCACUGUAGACGUGACGAAAGUCGCGUCAACAUGAGGAUCACCCAUGUACAGGACCGGGUGGUCGGGCG [Omei Tryp B SS A v5]
- apparent KD of MS2 coat protein (input ligand: arginine 13.2 mM): 74.1 nM
- apparent KD of MS2 coat protein [1]: 247 nM
- apparent KD of MS2 coat protein [2]: 240 nM

Sequence: AGCCGUACGUACGGAAACGUACGUACGGCACGAGGACCGGUACGGCCGCCACUCGCCCACAUGAGGAUCACCCAUGUAGUGGGUG [The One Line]
- apparent KD of MS2 coat protein (input ligand: arginine 13.2 mM): 23.4 nM
- apparent KD of MS2 coat protein (input ligand: none): 43.7 nM
- apparent KD of MS2 coat protein [1]: 58.2 nM
- apparent KD of MS2 coat protein [2]: 53.4 nM
- apparent KD of MS2 coat protein [3]: 103 nM

Sequence: AGCCUCAUACAUGAGGAACACCCAUGUGAUACCAGUCAGGAAACUGACCCUUGGCAGCGCAUGAGGAUCACCCAUGCGCGAGGCA [Omei Theo A Exc A v3]
- apparent KD of MS2 coat protein (input ligand: arginine 13.2 mM): 20.4 nM
- apparent KD of MS2 coat protein (input ligand: none): 63 nM
- apparent KD of MS2 coat protein [1]: 78.2 nM
- apparent KD of MS2 coat protein [2]: 237 nM
- apparent KD of MS2 coat protein [3]: 47.7 nM

Sequence: AGCGACAUGCAUGAUACCAGCUACAUGAGGAUCACCCAUGUACGUCAGUAAUGACUGUGUAGCCCUUGGCAGCAUAGAGCAUGUA [Exclusion - Theophylline B (Freestyle 14)]
- apparent KD of MS2 coat protein (input ligand: arginine 13.2 mM): 17.7 nM
- apparent KD of MS2 coat protein [1]: 28 nM
- apparent KD of MS2 coat protein [3]: 18.4 nM

Sequence: AGCGACAUGCGUGAUACCAGCUACAUGAGGAUCACCCAUGUACGUAGGAAACUACUGUGUAGCCCUUGGCAGCAUAGUGCAUGUC [Exclusion - Theophylline B (Freestyle 21)]
- apparent KD of MS2 coat protein (input ligand: arginine 13.2 mM): 14.6 nM
- apparent KD of MS2 coat protein [1]: 20 nM
- apparent KD of MS2 coat protein [3]: 13.5 nM

Sequence: AGCGACAUGCGUGAUACCAGCUACAUGAGGAUCACCCAUGUCAGUAGGAAACUACUGUGUAGCCCUUGGCAGCACAGUGCAUGUC [Exclusion - Theophylline B (Freestyle 26)]
- apparent KD of MS2 coat protein (input ligand: arginine 13.2 mM): 12.3 nM
- apparent KD of MS2 coat protein (input ligand: none): 16.4 nM
- apparent KD of MS2 coat protein [1]: 31.9 nM
- apparent KD of MS2 coat protein [2]: 30.2 nM
- apparent KD of MS2 coat protein [3]: 17.7 nM

Sequence: AGCGCAGGUCCUGAUACCAGAGACAUGAGGAUCACCCAUGUCCGGUGGUCCUGCCACAGGCUCCCUUGGCAGCAGGGCUUGUGCU [Exclusion Theophylline B GF9]
- apparent KD of MS2 coat protein (input ligand: arginine 13.2 mM): 31.4 nM
- apparent KD of MS2 coat protein (input ligand: none): 28.7 nM
- apparent KD of MS2 coat protein [1]: 40.8 nM
- apparent KD of MS2 coat protein [2]: 60.5 nM
- apparent KD of MS2 coat protein [3]: 29.1 nM

Sequence: AGCGUGCAUCGGAAAACGAUGUACGCAAAUCGAGGACCGGUACGGCCGCCACUCGUCCUCAACAUGAGGAUCACCCAUGUAAUAA [Mat - Exclusion - Trytophan A - D10]
- apparent KD of MS2 coat protein (input ligand: arginine 13.2 mM): 22 nM
- apparent KD of MS2 coat protein [1]: 24.8 nM
- apparent KD of MS2 coat protein [2]: 24 nM

Sequence: AGCUCGCAAUCCUCAGCGUCAAAGACGCGUCGAGGACCGGUACGGCCGCCACUCGACAAGAGGAUCACCCUUGUCUAAGCGAGCA [TrypAX 5 #SwitchBubble #AlternativeMS2 #MS2Late #CuTurnoff]
- apparent KD of MS2 coat protein (input ligand: arginine 13.2 mM): 78.5 nM
- apparent KD of MS2 coat protein [1]: 355 nM
- apparent KD of MS2 coat protein [2]: 588 nM
- apparent KD of MS2 coat protein [3]: 114 nM

Sequence: AGCUCGCAUCCUCAAGCGUCAAAGACGCGUCGAGGACCGGUACGGCCGCCACUCGACCUGAGGAACACCCAGGUCCUCGCGAGCA [TrypAX 7 #SwitchBubble #AlternativeMS2 #MS2Late #CuTurnoff]
- apparent KD of MS2 coat protein (input ligand: arginine 13.2 mM): 20.7 nM
- apparent KD of MS2 coat protein (input ligand: none): 26.1 nM
- apparent KD of MS2 coat protein [1]: 40.2 nM
- apparent KD of MS2 coat protein [2]: 34.9 nM
- apparent KD of MS2 coat protein [3]: 236 nM

Sequence: AGCUCGCGAAAGCGAGCAACAUGAUCCGAAGGAGCGGGCGAAAGCCCAGGUAGGUCGCGGACAUGAGGAUCACCCAUGUCUCCUU [MAT - Exclusion Arginine A - Mod of Eli - D13]
- apparent KD of MS2 coat protein (input ligand: arginine 13.2 mM): 41 nM
- apparent KD of MS2 coat protein (input ligand: none): 70.9 nM
- apparent KD of MS2 coat protein [1]: 88.4 nM
- apparent KD of MS2 coat protein [2]: 94.8 nM
- apparent KD of MS2 coat protein [3]: 77 nM

Sequence: AGGAACAUGAGGAUCACCCAUGUAAGCGAUACCAGUGAUAUGUUGCGCCCUUGGCAGCGCAAGUGUGUGUGAAAGAUGUAAGAUU [Eclusion - Theophylline A / A]
- apparent KD of MS2 coat protein (input ligand: arginine 13.2 mM): 14.6 nM
- apparent KD of MS2 coat protein [1]: 29.3 nM
- apparent KD of MS2 coat protein [3]: 16.7 nM

Sequence: AGGACGGUCGGAAGGAGCGGUACAUGAGGAUCACCCAUGUACUCCUGGGCAUCCGUAGUGUGCCAGGUAGGUCGCCGAUUGCGGG [XArg-B8]
- apparent KD of MS2 coat protein (input ligand: arginine 13.2 mM): 12.1 nM
- apparent KD of MS2 coat protein (input ligand: none): 12.1 nM
- apparent KD of MS2 coat protein [1]: 19.8 nM
- apparent KD of MS2 coat protein [2]: 21.5 nM
- apparent KD of MS2 coat protein [3]: 16.2 nM

Sequence: AGGACGGUCGGAAGGAGCGGUACAUGAGGAUCACCCAUGUAUUCCUGGGCAUCCGUAGUGUGCCAGGUAGGUCGCCGAUUGCGGG [XArg-B7]
- apparent KD of MS2 coat protein (input ligand: arginine 13.2 mM): 57.6 nM
- apparent KD of MS2 coat protein (input ligand: none): 32.7 nM
- apparent KD of MS2 coat protein [1]: 109 nM
- apparent KD of MS2 coat protein [2]: 103 nM
- apparent KD of MS2 coat protein [3]: 64.8 nM

Sequence: AGGUACAGCAGGUGAUUCUGGCUGUACCAACGAGGACCGGUACGGCCGCCACUCGAAUAAACAUGAGGAUCACCCAUGUACAAAU [T''-M-T'-T-MS2 - Design 7]
- apparent KD of MS2 coat protein (input ligand: arginine 13.2 mM): 20.3 nM
- apparent KD of MS2 coat protein [1]: 41.3 nM
- apparent KD of MS2 coat protein [2]: 31.9 nM

Sequence: AGUAAUAAUAUAAAUAAUAUUAGGUCAUGGCGAGGACCGGUACGGCCGCCACUCGGUUACAUGAGGAUCACCCAUGUCCCGCUUA [Exclusion - Tryptophan A]
- apparent KD of MS2 coat protein (input ligand: arginine 13.2 mM): 26.6 nM
- apparent KD of MS2 coat protein [1]: 35 nM
- apparent KD of MS2 coat protein [2]: 31.2 nM

Sequence: AGUACACGAACGGAUACCAGCCGGACAUGAGGAUCACCCAUGUCCUACCUCUGUUCGGUUGGCCCUUGGCAGCCGUUCGUGUACA [Omei Theo B SS A v8]
- apparent KD of MS2 coat protein (input ligand: arginine 13.2 mM): 122 nM
- apparent KD of MS2 coat protein [1]: 590 nM
- apparent KD of MS2 coat protein [3]: 208 nM

Sequence: AGUACAUGAGGAUCACCCAUGUAUCGGUACCGAGGACCGGUACGGCCGCCACUCGCAGGACAUGAGGAUCACCCAUGUGCCGCCG [SSTA DOUBLE!!! :-D #9]
- apparent KD of MS2 coat protein (input ligand: arginine 13.2 mM): 13.9 nM
- apparent KD of MS2 coat protein [1]: 22.6 nM
- apparent KD of MS2 coat protein [2]: 22.4 nM

Sequence: AGUACUCGAACGGAUACCAGCCGGACAUGAGGAUCACCCAUGUCCUACCUAUGUUCGGUUGGCCCUUGGCAGCCGUUCGUGUACA [Omei Theo B SS A v6]
- apparent KD of MS2 coat protein (input ligand: arginine 13.2 mM): 171 nM
- apparent KD of MS2 coat protein [1]: 707 nM
- apparent KD of MS2 coat protein [3]: 430 nM

Sequence: AGUAGUUGACAAAAGUCAGCUACAAUUGAAGGAGCGGGUGGGUGCCCAGGUAGGUCGCAAUAACAUGAGGAUCACCCAUGUAUAA [ArgAS 2 #BothOrNeither #OpenEnded]
- apparent KD of MS2 coat protein (input ligand: arginine 13.2 mM): 20 nM
- apparent KD of MS2 coat protein (input ligand: none): 21 nM
- apparent KD of MS2 coat protein [1]: 22.9 nM
- apparent KD of MS2 coat protein [2]: 27.2 nM
- apparent KD of MS2 coat protein [3]: 17.9 nM

Sequence: AGUAUCAGUGGAAGGAGCGUCGCGACUGCCACAUGAGGAUCACCCAUGUCGCCUUGAGCGCGACAGGUAGGUCGCCACGGUAGGC [SS-ArgB2]
- apparent KD of MS2 coat protein (input ligand: arginine 13.2 mM): 29.1 nM
- apparent KD of MS2 coat protein (input ligand: none): 301 nM
- apparent KD of MS2 coat protein [1]: 213 nM
- apparent KD of MS2 coat protein [2]: 499 nM
- apparent KD of MS2 coat protein [3]: 289 nM

Sequence: AGUAUUGGAAACAGUACUAGUGAUCCGGUCCGAGGACCGGUACGGCCGCCACUCGAAUUAAAUAAACAUGAGGAUCACCCAUGUA [Ex Tryptophan A 15]
- apparent KD of MS2 coat protein (input ligand: arginine 13.2 mM): 18.1 nM
- apparent KD of MS2 coat protein [1]: 18.7 nM
- apparent KD of MS2 coat protein [2]: 20.6 nM

Sequence: AGUCUUAUAGGAAGGAGCGCAUACUUCACAUGAGGAUCACCCAUGUCAAGACGUGAGUCAGUGCAGGUAGGUCGCCUAACUAAGA [Same State - Arginine B (Freestyle 13)]
- apparent KD of MS2 coat protein (input ligand: arginine 13.2 mM): 27.2 nM
- apparent KD of MS2 coat protein (input ligand: none): 29.2 nM
- apparent KD of MS2 coat protein [1]: 29.7 nM
- apparent KD of MS2 coat protein [2]: 32.1 nM
- apparent KD of MS2 coat protein [3]: 27.7 nM
